{"source": "paper PMC6389858", "key": {"[1]": {"biological_target": "T1, OxyR (Escherichia coli K12 BW25113?) (UniProt P0ACQ4)", "T1 sequence": "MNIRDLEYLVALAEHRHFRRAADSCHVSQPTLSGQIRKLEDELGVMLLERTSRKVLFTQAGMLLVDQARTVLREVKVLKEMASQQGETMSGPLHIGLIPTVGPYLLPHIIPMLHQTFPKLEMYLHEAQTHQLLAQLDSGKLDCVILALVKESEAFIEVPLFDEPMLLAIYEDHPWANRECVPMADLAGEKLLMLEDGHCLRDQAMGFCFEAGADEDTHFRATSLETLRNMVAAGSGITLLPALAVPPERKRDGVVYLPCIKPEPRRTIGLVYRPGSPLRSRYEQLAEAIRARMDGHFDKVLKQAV", "assay": "EMSA", "conditions": "EMSA: 10 mM HEPES pH 7.3, 20 mM KCl, 1 mM MgCl2, 5% glycerol, poly dI-dC, NP-40, 25 C, 2 h; 6% DNA retardation gel"}, "[2]": {"biological_target": "T1, OxyR (Escherichia coli K12 BW25113?)", "assay": "competition", "conditions": "EMSA: 10 mM HEPES pH 7.3, 20 mM KCl, 1 mM MgCl2, 5% glycerol, poly dI-dC, NP-40, 25 C, 2 h; 6% DNA retardation gel"}}}
{"sequence": "ACTGGCCTGATAAGCCTGTTTACCTCGGGGCGCAGGCGCATCTGCAAAACTTCTACCAGAGTTTCGGTTTTATCCCTGTGACGGAGGTCTATGAAGAAGATGGTATCCCACACATTGGGATGGCACGCGAGGTAATTCAGGCGTAATCAACAACCCTTGTCTATAGTTAGTGACAGGTTTTACGCAAATGGAGAACGAGA (double strand) [PelaB-S (elaB promoter probe with OxyR binding site 2)]", "values": [{"measurement": "binding", "setting": "[1]", "result": "binds"}, {"measurement": "binding", "setting": "[2]", "result": "binds"}]}
